Earlier results in publication PMC10298792.
pKd: −log10 of the molar value.

Columns and labels:
[1] = biological target: Bid BH3 (Homo sapiens) (UniProt P55957); test: ITC
[2] = biological target: Pxt1 BH3 (Homo sapiens) (UniProt Q8NFP0); test: ITC
Chain of Pxt1 BH3 (Homo sapiens) (Q8NFP0 76-101): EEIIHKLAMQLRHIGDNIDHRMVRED

Chain of Bcl-xL (Q07817 whole entry): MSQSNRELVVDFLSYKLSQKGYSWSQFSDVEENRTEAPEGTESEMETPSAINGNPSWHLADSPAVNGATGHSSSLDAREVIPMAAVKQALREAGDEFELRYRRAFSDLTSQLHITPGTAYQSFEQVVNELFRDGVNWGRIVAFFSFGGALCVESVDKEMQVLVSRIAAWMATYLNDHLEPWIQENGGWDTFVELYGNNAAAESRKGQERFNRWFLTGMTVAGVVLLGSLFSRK
Chain of Bak (Q16611 2-211): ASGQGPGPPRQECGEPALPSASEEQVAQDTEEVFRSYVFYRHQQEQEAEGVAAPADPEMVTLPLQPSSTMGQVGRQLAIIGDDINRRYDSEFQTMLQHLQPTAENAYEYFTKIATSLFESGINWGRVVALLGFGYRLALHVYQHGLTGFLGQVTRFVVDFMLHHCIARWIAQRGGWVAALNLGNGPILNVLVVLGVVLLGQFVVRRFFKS

Row | pKd [1] | pKd [2] | Substance
1 | 4.64 | – | Bak (from UniProt Q16611)
2 | 8.06 | 6.63 | Bcl-xL (from UniProt Q07817)
